Experimental findings from paper PMC9233744 are described below.

No end group written: not given here.

One may read the stoichiometry N as the number of molecules, sites or subunits per partner or assembly. Usually Kd stands for the constant that tells how readily two partners part at equilibrium. The IC50 is the concentration at which inhibition is half-maximal.

The target in one experiment is Rgg144 (recombinant, Streptococcus pneumoniae D39, SPD_0144) (Streptococcus pneumoniae D39). Nature of the experiment: SEC. (In general: In gel filtration, larger molecules generally elute earlier.)
“Rgg144 (recombinant, Streptococcus pneumoniae D39, SPD_0144) (natural protein)”: the stoichiometry N was determined as 2.

The next experiment shares this target. Nature of the experiment: fluorescence polarisation. (Fluorescence polarisation rises when a labelled molecule tumbles more slowly, as on binding a larger partner.)
SEWVAVIPFLTNL (also: FITC label, position not given here) [FITC-labeled SHP144 I18A]: the Kd was above 100 µM.
On the same count and under the same terms, as for SEWVIVIPFLTNL (also: FITC label, position not given here) [FITC-labeled SHP144 (SHP144-C13), wild type], the figure is 6.6 µM; as for SEWVIVIPALTNL (also: FITC label, position not given here) [FITC-labeled SHP144 F22A], 7.1 µM; as for SEWVIVIPFATNL (also: FITC label, position not given here) [FITC-labeled SHP144 L23A], 4.3 µM.
Consider SEWVIVAPFLTNL (also: FITC label, position not given here) [FITC-labeled SHP144 I20A], for which the Kd turned out to be 23.5 µM.
The same measure, in the same setting: as for AEWVIVIPFLTNL (also: FITC label, position not given here) [FITC-labeled SHP144 S14A], the figure is 8.1 µM.
As for SEWVIVIPFLTNL [unlabeled SHP144 (13-residue synthetic peptide, wild type)], the IC50 amounted to 86.8 µM.
Consider SEWVIVIPFLANL (also: FITC label, position not given here) [FITC-labeled SHP144 T24A], for which the Kd is 3.3 µM.
Same read-out and setting: as for SEWAIVIPFLTNL (also: FITC label, position not given here) [FITC-labeled SHP144 V17A], the figure is 9.7 µM; as for SEAVIVIPFLTNL (also: FITC label, position not given here) [FITC-labeled SHP144 W16A], 50 µM; as for SEWVIVIPFLTNA (also: FITC label, position not given here) [FITC-labeled SHP144 L26A], 3.4 µM.
The same measure, in the same setting: as for SAWVIVIPFLTNL (also: FITC label, position not given here) [FITC-labeled SHP144 E15A], the figure is 3.3 µM.
Take SEWVIAIPFLTNL (also: FITC label, position not given here) [FITC-labeled SHP144 V19A]: the Kd turned out to be 4 µM.
For SEWVIVIPFLTAL (also: FITC label, position not given here) [FITC-labeled SHP144 N25A], the Kd was determined as 3.3 µM.
As to SEWVIVIAFLTNL (also: FITC label, position not given here) [FITC-labeled SHP144 P21A], the Kd is 1.7 µM.
